Patent US20150299281A1 (ZEALAND PHARMA A S, published 2015)
Numbered stars: 1 amine (or outer) side, 2 acyl side, 3 side chain; on linkers, the order of the positions; unused ones are H or OH. Square brackets hold non-standard residues; d marks the D form. Side chains are listed from the residue outwards. * marks the point of attachment. γGlu = O=C(O)[C@H](CCC(=O)[*:2])N[*:1]; Palmitoyl = CCCCCCCCCCCCCCCC(=O)*; Aib = CC(C)(N)C(=O)O

T1: human GIP receptor (human, UniProt P48546 22-466)
T1 sequence (looked up): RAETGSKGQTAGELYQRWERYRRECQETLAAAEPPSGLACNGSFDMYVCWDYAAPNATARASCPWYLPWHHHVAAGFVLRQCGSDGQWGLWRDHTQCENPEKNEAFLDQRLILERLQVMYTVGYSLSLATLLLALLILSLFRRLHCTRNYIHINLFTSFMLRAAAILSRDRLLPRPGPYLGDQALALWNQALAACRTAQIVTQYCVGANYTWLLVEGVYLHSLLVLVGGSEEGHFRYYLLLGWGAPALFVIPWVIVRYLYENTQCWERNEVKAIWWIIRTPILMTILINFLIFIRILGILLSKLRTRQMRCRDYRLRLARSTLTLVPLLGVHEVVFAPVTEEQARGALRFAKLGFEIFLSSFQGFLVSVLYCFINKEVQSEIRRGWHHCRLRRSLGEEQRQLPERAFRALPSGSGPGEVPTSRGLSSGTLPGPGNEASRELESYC


How the values were obtained:
human GLP-1 receptor = human GLP-1 receptor (human, UniProt P43220 24-463); experiment: cell-based or functional assay
human GIP receptor = target: T1, human GIP receptor; experiment: cell-based or functional assay

Binder | EC50, cAMP induction in HEK293 cells expressing human GLP-1 R (human GLP-1 receptor) [nM] | EC50, cAMP induction in HEK293 cells expressing human GIP R (human GIP receptor) [nM]
H-Y[Aib]EGTFTSDYSIYLDKK([γGlu-Palmitoyl])AQRAFVEWLLAQGPSSGAPPPS-NH2 (SMILES CCCCCCCCCCCCCCCC(=O)N[C@@H](CCC(=O)NCCCC[C@H](NC(=O)[C@H](CCCCN)NC(=O)[C@H](CC(=O)O)NC(=O)[C@H](CC(C)C)NC(=O)[C@H](Cc1ccc(O)cc1)NC(=O)[C@@H](NC(=O)[C@H](CO)NC(=O)[C@H](Cc1ccc(O)cc1)NC(=O)[C@H](CC(=O)O)NC(=O)[C@H](CO)NC(=O)[C@@H](NC(=O)[C@H](Cc1ccccc1)NC(=O)[C@@H](NC(=O)CNC(=O)[C@H](CCC(=O)O)NC(=O)C(C)(C)NC(=O)[C@@H](N)Cc1ccc(O)cc1)[C@@H](C)O)[C@@H](C)O)[C@@H](C)CC)C(=O)N[C@@H](C)C(=O)N[C@@H](CCC(N)=O)C(=O)N[C@@H](CCCNC(=N)N)C(=O)N[C@@H](C)C(=O)N[C@@H](Cc1ccccc1)C(=O)N[C@H](C(=O)N[C@@H](CCC(=O)O)C(=O)N[C@@H](Cc1c[nH]c2ccccc12)C(=O)N[C@@H](CC(C)C)C(=O)N[C@@H](CC(C)C)C(=O)N[C@@H](C)C(=O)N[C@@H](CCC(N)=O)C(=O)NCC(=O)N1CCC[C@H]1C(=O)N[C@@H](CO)C(=O)N[C@@H](CO)C(=O)NCC(=O)N[C@@H](C)C(=O)N1CCC[C@H]1C(=O)N1CCC[C@H]1C(=O)N1CCC[C@H]1C(=O)N[C@@H](CO)C(N)=O)C(C)C)C(=O)O) [Compound 33] | 0.031 | 0.035
H-Y[Aib]EGTFTSDYSIYLDEK([γGlu-Palmitoyl])AAKEFIEWLESA-NH2 (SMILES CCCCCCCCCCCCCCCC(=O)N[C@@H](CCC(=O)NCCCC[C@H](NC(=O)[C@H](CCC(=O)O)NC(=O)[C@H](CC(=O)O)NC(=O)[C@H](CC(C)C)NC(=O)[C@H](Cc1ccc(O)cc1)NC(=O)[C@@H](NC(=O)[C@H](CO)NC(=O)[C@H](Cc1ccc(O)cc1)NC(=O)[C@H](CC(=O)O)NC(=O)[C@H](CO)NC(=O)[C@@H](NC(=O)[C@H](Cc1ccccc1)NC(=O)[C@@H](NC(=O)CNC(=O)[C@H](CCC(=O)O)NC(=O)C(C)(C)NC(=O)[C@@H](N)Cc1ccc(O)cc1)[C@@H](C)O)[C@@H](C)O)[C@@H](C)CC)C(=O)N[C@@H](C)C(=O)N[C@@H](C)C(=O)N[C@@H](CCCCN)C(=O)N[C@@H](CCC(=O)O)C(=O)N[C@@H](Cc1ccccc1)C(=O)N[C@H](C(=O)N[C@@H](CCC(=O)O)C(=O)N[C@@H](Cc1c[nH]c2ccccc12)C(=O)N[C@@H](CC(C)C)C(=O)N[C@@H](CCC(=O)O)C(=O)N[C@@H](CO)C(=O)N[C@@H](C)C(N)=O)[C@@H](C)CC)C(=O)O) [Compound 34] | 0.031 | 0.045
H-Y[Aib]EGTFTSDYSIYLDKK([γGlu-Palmitoyl])AQRAFVNWLLA[Aib]KPSSGAPPPS-NH2 (SMILES CCCCCCCCCCCCCCCC(=O)N[C@@H](CCC(=O)NCCCC[C@H](NC(=O)[C@H](CCCCN)NC(=O)[C@H](CC(=O)O)NC(=O)[C@H](CC(C)C)NC(=O)[C@H](Cc1ccc(O)cc1)NC(=O)[C@@H](NC(=O)[C@H](CO)NC(=O)[C@H](Cc1ccc(O)cc1)NC(=O)[C@H](CC(=O)O)NC(=O)[C@H](CO)NC(=O)[C@@H](NC(=O)[C@H](Cc1ccccc1)NC(=O)[C@@H](NC(=O)CNC(=O)[C@H](CCC(=O)O)NC(=O)C(C)(C)NC(=O)[C@@H](N)Cc1ccc(O)cc1)[C@@H](C)O)[C@@H](C)O)[C@@H](C)CC)C(=O)N[C@@H](C)C(=O)N[C@@H](CCC(N)=O)C(=O)N[C@@H](CCCNC(=N)N)C(=O)N[C@@H](C)C(=O)N[C@@H](Cc1ccccc1)C(=O)N[C@H](C(=O)N[C@@H](CC(N)=O)C(=O)N[C@@H](Cc1c[nH]c2ccccc12)C(=O)N[C@@H](CC(C)C)C(=O)N[C@@H](CC(C)C)C(=O)N[C@@H](C)C(=O)NC(C)(C)C(=O)N[C@@H](CCCCN)C(=O)N1CCC[C@H]1C(=O)N[C@@H](CO)C(=O)N[C@@H](CO)C(=O)NCC(=O)N[C@@H](C)C(=O)N1CCC[C@H]1C(=O)N1CCC[C@H]1C(=O)N1CCC[C@H]1C(=O)N[C@@H](CO)C(N)=O)C(C)C)C(=O)O) [Compound 35] | 0.022 | 0.028
H-Y[Aib]EGTFTSDYSIYLEKKAAKDFVEWLLSA-NH2 (SMILES CC[C@H](C)[C@H](NC(=O)[C@H](CO)NC(=O)[C@H](Cc1ccc(O)cc1)NC(=O)[C@H](CC(=O)O)NC(=O)[C@H](CO)NC(=O)[C@@H](NC(=O)[C@H](Cc1ccccc1)NC(=O)[C@@H](NC(=O)CNC(=O)[C@H](CCC(=O)O)NC(=O)C(C)(C)NC(=O)[C@@H](N)Cc1ccc(O)cc1)[C@@H](C)O)[C@@H](C)O)C(=O)N[C@@H](Cc1ccc(O)cc1)C(=O)N[C@@H](CC(C)C)C(=O)N[C@@H](CCC(=O)O)C(=O)N[C@@H](CCCCN)C(=O)N[C@@H](CCCCN)C(=O)N[C@@H](C)C(=O)N[C@@H](C)C(=O)N[C@@H](CCCCN)C(=O)N[C@@H](CC(=O)O)C(=O)N[C@@H](Cc1ccccc1)C(=O)N[C@H](C(=O)N[C@@H](CCC(=O)O)C(=O)N[C@@H](Cc1c[nH]c2ccccc12)C(=O)N[C@@H](CC(C)C)C(=O)N[C@@H](CC(C)C)C(=O)N[C@@H](CO)C(=O)N[C@@H](C)C(N)=O)C(C)C) [Compound 37] | 0.018 | 0.0097
H-Y[Aib]EGTFISDYSIYLEKIAAKEFVNWLLAQK-NH2 [Compound 4] | 2.6 | 0.022
H-Y[Aib]EGTFTSDYSIYLEKKAAHDFVEWLLSA-NH2 (SMILES CC[C@H](C)[C@H](NC(=O)[C@H](CO)NC(=O)[C@H](Cc1ccc(O)cc1)NC(=O)[C@H](CC(=O)O)NC(=O)[C@H](CO)NC(=O)[C@@H](NC(=O)[C@H](Cc1ccccc1)NC(=O)[C@@H](NC(=O)CNC(=O)[C@H](CCC(=O)O)NC(=O)C(C)(C)NC(=O)[C@@H](N)Cc1ccc(O)cc1)[C@@H](C)O)[C@@H](C)O)C(=O)N[C@@H](Cc1ccc(O)cc1)C(=O)N[C@@H](CC(C)C)C(=O)N[C@@H](CCC(=O)O)C(=O)N[C@@H](CCCCN)C(=O)N[C@@H](CCCCN)C(=O)N[C@@H](C)C(=O)N[C@@H](C)C(=O)N[C@@H](Cc1c[nH]cn1)C(=O)N[C@@H](CC(=O)O)C(=O)N[C@@H](Cc1ccccc1)C(=O)N[C@H](C(=O)N[C@@H](CCC(=O)O)C(=O)N[C@@H](Cc1c[nH]c2ccccc12)C(=O)N[C@@H](CC(C)C)C(=O)N[C@@H](CC(C)C)C(=O)N[C@@H](CO)C(=O)N[C@@H](C)C(N)=O)C(C)C) [Compound 38] | 0.018 | 0.007
H-Y[Aib]EGTFTSDYSIYLEKKAQKEFVEWLLSA-NH2 (SMILES CC[C@H](C)[C@H](NC(=O)[C@H](CO)NC(=O)[C@H](Cc1ccc(O)cc1)NC(=O)[C@H](CC(=O)O)NC(=O)[C@H](CO)NC(=O)[C@@H](NC(=O)[C@H](Cc1ccccc1)NC(=O)[C@@H](NC(=O)CNC(=O)[C@H](CCC(=O)O)NC(=O)C(C)(C)NC(=O)[C@@H](N)Cc1ccc(O)cc1)[C@@H](C)O)[C@@H](C)O)C(=O)N[C@@H](Cc1ccc(O)cc1)C(=O)N[C@@H](CC(C)C)C(=O)N[C@@H](CCC(=O)O)C(=O)N[C@@H](CCCCN)C(=O)N[C@@H](CCCCN)C(=O)N[C@@H](C)C(=O)N[C@@H](CCC(N)=O)C(=O)N[C@@H](CCCCN)C(=O)N[C@@H](CCC(=O)O)C(=O)N[C@@H](Cc1ccccc1)C(=O)N[C@H](C(=O)N[C@@H](CCC(=O)O)C(=O)N[C@@H](Cc1c[nH]c2ccccc12)C(=O)N[C@@H](CC(C)C)C(=O)N[C@@H](CC(C)C)C(=O)N[C@@H](CO)C(=O)N[C@@H](C)C(N)=O)C(C)C) [Compound 39] | 0.011 | 0.0083
H-Y[Aib]EGTFTSDYSIYLDEKAAKDFVEWLLSA-NH2 (SMILES CC[C@H](C)[C@H](NC(=O)[C@H](CO)NC(=O)[C@H](Cc1ccc(O)cc1)NC(=O)[C@H](CC(=O)O)NC(=O)[C@H](CO)NC(=O)[C@@H](NC(=O)[C@H](Cc1ccccc1)NC(=O)[C@@H](NC(=O)CNC(=O)[C@H](CCC(=O)O)NC(=O)C(C)(C)NC(=O)[C@@H](N)Cc1ccc(O)cc1)[C@@H](C)O)[C@@H](C)O)C(=O)N[C@@H](Cc1ccc(O)cc1)C(=O)N[C@@H](CC(C)C)C(=O)N[C@@H](CC(=O)O)C(=O)N[C@@H](CCC(=O)O)C(=O)N[C@@H](CCCCN)C(=O)N[C@@H](C)C(=O)N[C@@H](C)C(=O)N[C@@H](CCCCN)C(=O)N[C@@H](CC(=O)O)C(=O)N[C@@H](Cc1ccccc1)C(=O)N[C@H](C(=O)N[C@@H](CCC(=O)O)C(=O)N[C@@H](Cc1c[nH]c2ccccc12)C(=O)N[C@@H](CC(C)C)C(=O)N[C@@H](CC(C)C)C(=O)N[C@@H](CO)C(=O)N[C@@H](C)C(N)=O)C(C)C) [Compound 40] | 0.022 | 0.011
